From patent US7678386B2, “Liposomes coated with selected antibodies that bind to aminophospholipids” (Board of Regents the University of Texas, priority 2002, dated 2010)
Values joined by “and” are separate entries in the source; they are usually repeats but may differ in a detail not shown here. Equal values may be shown once.

Experiment: Monoclonal single chain antibody ELISA on PS plate
Format: binding
Settings: supernatants of individual subclones, 10% human serum
Description: Individual HB2151 colonies from the plates (after 4 rounds of selection) were inoculated into 500 μl 2×TY containing 100 μg/ml ampicillin and 1% glucose in 96-well plates and grown with shaking (300 rpm.) overnight at 37° C. 5 μl from this plate were transferred to a second 96-well plate containing 500 μl 2×TY containing 100 μg/ml ampicillin per well and grown shaking at 37° C. for 3 hr (OD600=0.9).
To each well was added 50 μl 2×TY containing 100 μg/ml ampicillin, 10 mM IPTG (final concentration is 1 mM), which was grown with shaking overnight at 30° C. It was centrifuged at 1,800 g for 10 min and 100 μl of the supernatant used in the following ELISA.
96 well plates (DYNEX IMMULON®1B) were coated with PS dissolved in ethanol at a concentration of 10 μg/ml (P6641 10 mg/ml solvent was Chloroform:MeOH 95:5). 10 μg/ml PC was coated in the same way. These plates were evaporated at 4° C. in the cold room. 250 μl 2.5% casein was added to each well, and the plates were covered and blocked at 37° C. for 1 hour.
Wells were rinsed 3 times with PBS, 100 μl/well 10% human serum and 100 μl/well supernatant containing soluble scFv was added and incubated for 60 min at 37° C. The solution was discarded and washed 6 times with PBS. […] 100 μl 0.18 M H2SO4 was added to stop the reaction and read at O.D. 490.

B1: 3A2: scFv anti-PS clone; sequences SEQ ID NO:5 and SEQ ID NO:6 (protein)
scFv: AQPAMAEVQLVESGGGVVQPGRSLRLSCAASGFTFSSYGMHWVRQAPGKGLEWVAVISYDGSNKYYADSVKGRFTISRDNSKNTLYLQMNSLRAEDTAVYYCARLHAQTWGQGTLVTVSSGGGGSGGGGSGGSALQSVLTQPPSVSAAPGQKVTISCSGSSSDMGNYAVSWYQQLPGTAPKLLIYENNKRPSGIPDRFSGSKSGTSATLGITGLWPEDEADYYCLAWDTSPRNVFGGGTKLTVLGAAAHHHHHHGAAEQKL
- ELISA on PS Plate (O.D. 490): 0.126 and 0.118 (2×) and 0.131 (2×) and 0.125 and 0.115 and 0.127 and 0.150 and 0.117 and 0.112 and 0.121 and 0.123 and 0.114 and 0.116 and 0.132
